Experimental data as given in PMC5113301 (Cell Research, 2016).

B1: seleno-methionine substituted AcrF3 (anti-CRISPR protein encoded by gene 35 from phage JBD5) (natural protein)
chain: MSNTISDRIVARSVIEAARFIQSWEDADPDSLTEDQVLAAAGFAARLHEGLQATVLQRLVDESNHEEYREFKAWEEALLNADGRVASSPFADWGWWYRIANVMLATASQNVGVTWGSRVHGRLMAIFQDKFKQRYEEQA
modifications: seleno-methionine substituted
B2: AcrF3 (as in the PaeCas3-AcrF3 complex) (natural protein, phage JBD5)
chain: B1 chain

How the values were obtained:
crystal structure = biological target: the molecule itself; assay: crystal structure
cryo-EM structure = biological target: the molecule itself; assay: cryo-EM structure

Protein | stoichiometry N (crystal structure) | stoichiometry N (cryo-EM structure)
B1 | 2 | 
B2 |  | 2
